The values below come from paper PMC5910394, “Mechanically interlocked functionalization of monoclonal antibodies” (Nature Communications, 2018).

The Kd is the equilibrium constant for the complex coming apart. One may read the half-life as the time needed for the level to fall by half in the phase considered. Read a high half-life as slow decline. What is called koff is a measure of how fast the partners let go of each other. The kon is the rate constant with which the complex forms.

The target of one experiment is Ile83Glu anti-HER2 memAb. Kind of experiment: SPR; memAb variant amine-coupled to a CM5 chip, peptide flowed over at 30 uL/min, HBS-EP+, 37 °C, Biacore T100, 1:1 binding model. For orientation: Surface plasmon resonance follows binding to a sensor surface in real time, without labels.
Chain of Ile83Glu anti-HER2 memAb (heavy, as listed by the source, chain 1 of 2): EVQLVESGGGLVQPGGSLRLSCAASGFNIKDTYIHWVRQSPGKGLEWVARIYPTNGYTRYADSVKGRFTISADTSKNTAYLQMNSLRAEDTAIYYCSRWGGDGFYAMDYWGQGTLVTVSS
Chain of Ile83Glu anti-HER2 memAb (light, as listed by the source, chain 2 of 2): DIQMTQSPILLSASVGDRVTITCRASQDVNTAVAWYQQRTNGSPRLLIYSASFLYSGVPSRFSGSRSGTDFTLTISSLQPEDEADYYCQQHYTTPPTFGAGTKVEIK
For experiment [1], the target named is anti-HER2 memAb (trastuzumab-based, meditope-enabled anti-HER2 antibody). Kind of experiment: SPR; memAb variant amine-coupled to a CM5 chip, peptide flowed over at 30 uL/min, HBS-EP+, 25 °C, Biacore T100, 1:1 binding model.
Chain of anti-HER2 memAb (trastuzumab-based, meditope-enabled anti-HER2 antibody) (heavy, as listed by the source, chain 1 of 2): as the sequence (heavy, as listed by the source, chain 1 of 2) above
Chain of anti-HER2 memAb (trastuzumab-based, meditope-enabled anti-HER2 antibody) (light, as listed by the source, chain 2 of 2): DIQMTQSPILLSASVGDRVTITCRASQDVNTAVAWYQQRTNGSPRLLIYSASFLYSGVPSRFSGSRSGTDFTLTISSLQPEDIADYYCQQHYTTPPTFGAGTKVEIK
In another experiment the target is long meditope ((Ac)…). The experiment in a line: SPR. The settings on record: 37 °C (red point beside label LE); n = 1; parent: est. 5.3; read off a plot.
Experiment [2] addresses memAb anti-HER2 (meditope-enabled, trastuzumab-based anti-HER2 antibody). Kind of experiment: SPR; memAb anti-HER2 amine-coupled on a CM5 chip, meditope flowed over at 30 uL/min, HBS-EP+, 25 °C, 1:1 model, global fit, n=1 (authors estimate the error at 10-50%).

Chain of memAb anti-HER2 (meditope-enabled, trastuzumab-based anti-HER2 antibody) (heavy, as listed by the source, chain 1 of 2): as the sequence (heavy, as listed by the source, chain 1 of 2) above

In the experiment with Ile83Glu anti-HER2 memAb, “5-diphenylalanine-8-Arg-(PEG)2-azido-meditope ((Ac)CQFDA(Ph)2STRXLRCGGSK, X = arginine-(PEG)2-azide) (peptide)” yielded a Kd of 2.1 nM and a half-life of 1.38 h. In experiment [1], “meditope with Leu5 substituted by L-diphenylalanine (peptide)” yielded a Kd of 40 nM.

Take “anti-HER2 memAb (trastuzumab-based, meditope-enabled anti-HER2 antibody) LC:Ile83Glu”: in the experiment with long meditope ((Ac)…), the kon (log10(M-1 s-1)) turned out to be 5.6. As for CQFDA(Ph)2STRRLKC meditope (peptide), in experiment [2], the koff is 0.008 s⁻¹ and the kon is 200000 M⁻¹ s⁻¹.
